15 molecules from patent publication US20230212554A1 can be followed below.

Substrate in test [1]: NP of B/Brisbane/60/2008(fluB) (influenza B virus B/Brisbane/60/2008)
The test is described as follows: ELISA on virus-infected fixed MDCK cells. (An ELISA detects its analyte on a solid surface through an enzyme-linked reagent.)

Substrate in test [2]: NP of A/Brisbane/59/2007(H1N1/H1B) (influenza A virus A/Brisbane/59/2007 (H1N1))
The test is described as follows: sandwich ELISA, capture IgG; NP of lysed virus titrated; HRP-NP16 detection.

Substrate in test [3]: NP of A/Brisbane/59/2007(H1N1/H1B) (influenza A virus A/Brisbane/59/2007 (H1N1))
The test is described as follows: sandwich ELISA, capture IgG; NP of lysed virus titrated; HRP-NP17 detection.

Substrate in test [4]: NP of A/Brisbane/59/2007(H1N1/H1B) (influenza A virus A/Brisbane/59/2007 (H1N1))
As to the kind of experiment: ELISA on virus-infected fixed MDCK cells.

B1: NP20 (antibody, V domains shown)
VH: EVQLVESGGGLVQPGGSLRLSCAASGFTINGYSIHWVRQAPGKGLEWVASIGPYGGFTYYADSVKGRFTISADTSKNTAYLQMNSLRAEDTAVYYCAGFGFYYWGQGTLVTVSS
VL: DIQMTQSPSSLSASVGDRVTITCRASQDVGYGVAWYQQKPGKAPKLLISGASGLYSGVPSRFSGSGSGTDFTLTISSLQPEDFATYYCQQYSSFPLTFGQGTKVEIKR
Turning to B1, the EC50 (as a rule, the concentration giving half of the maximal effect) in test [1] was found to be 4.88 nM.

B2: NP17 (antibody, V domains shown)
VH: EVQLVESGGGLVQPGGSLRLSCAASGFTISGGSIHWVRQAPGKGLEWVASIWPFGGSTFYADSVKGRFTISADTSKNTAYLQMNSLRAEDTAVYYCARFGHGHNVIMDYWGQGTLVTVSS
VL: DIQMTQSPSSLSASVGDRVTITCRASQDVGYSVAWYQQKPGKAPKLLISSPGGLYSGVPSRFSGSGSGTDFTLTISSLQPEDFATYYCQQYYDYPVTFGQGTKVEIKR
As for B2, the EC50 worked out at 4.08 nM in test [2] and 2.22 nM in test [3].

B3: NP22 (antibody, V domains shown)
VH: EVQLVESGGGLVQPGGSLRLSCAASGFTISDWSIHWVRQAPGKGLEWVAGIWPYWGSTSYADSVKGRFTISADTSKNTAYLQMNSLRAEDTAVYYCARGFYSWFDYWGQGTLVTVSS
VL: DIQMTQSPSSLSASVGDRVTITCRASQDVFSWVAWYQQKPGKAPKLLISSASSLYSGVPSRFSGSGSGTDFTLTISSLQPEDFATYYCQQSWDYPITFGQGTKVEIKR
With B3, the EC50 in test [2] amounted to 59.4 nM; in test [3], 102 nM; in test [1], 3.92 nM; in test [4], 7.11 nM.

B4: NP16 (antibody, V domains shown)
VH: EVQLVESGGGLVQPGGSLRLSCAASGFTIGNSGIHWVRQAPGKGLEWVAWIGPYWGFTSYADSVKGRFTISADTSKNTAYLQMNSLRAEDTAVYYCARFGNHWHLFMDYWGQGTLVTVSS
VL: DIQMTQSPSSLSASVGDRVTITCRASQDVGSYVAWYQQKPGKAPKLLISWTTGLYSGVPSRFSGSGSGTDFTLTISSLQPEDFATYYCQQYFSYPVTFGQGTKVEIKR
B4: the concentration for a half-maximal effect (EC50) in test [2] is 4.74 nM; in test [3], 0.89 nM; in test [4], 0.21 nM.

B5: NP3 (antibody, V domains shown)
VH: EVQLVESGGGLVQPGGSLRLSCAASGFTISNYGIHWVRQAPGKGLEWVAGIWPFGGFTSYADSVKGRFTISADTSKNTAYLQMNSLRAEDTAVYYCARFHWNDHGYMDYWGQGTLVTVSS
VL: DIQMTQSPSSLSASVGDRVTITCRASQDVGWYVAWYQQKPGKAPKLLIYSTTGLYSGVPSRFSGSGSGTDFTLTISSLQPEDFATYYCQQYYNYPITFGQGTKVEIKR
On to B5, for which the EC50 was 2.36 nM in test [2], 1.04 nM in test [3] and 0.521 nM in test [4].

B6: NP7 (antibody, V domains shown)
VH: EVQLVESGGGLVQPGGSLRLSCAASGFTISNGGIHWVRQAPGKGLEWVAGIGPYGGFTSYADSVKGRFTISADTSKNTAYLQMNSLRAEDTAVYYCARFYSNYYGYHGVMDYWGQGTLVTVSS
VL: DIQMTQSPSSLSASVGDRVTITCRASQDVFGWVAWYQQKPGKAPKLLISYSASLYSGVPSRFSGSGSGTDFTLTISSLQPEDFATYYCQQYFNYPLTFGQGTKVEIKR
Turning to B6, the EC50 in test [2] stood at 4.13 nM; in test [3] it was 4.15 nM.

B7: NP25 (antibody, V domains shown)
VH: EVQLVESGGGLVQPGGSLRLSCAASGFTIGGGFIHWVRQAPGKGLEWVASIWPYWGFTYYADSVKGRFTISADTSKNTAYLQMNSLRAEDTAVYYCARGSYGYSDYWGQGTLVTVSS
VL: DIQMTQSPSSLSASVGDRVTITCRAGQDVSSGVAWYQQKPGKAPKLLISWTSFLYSGVPSRFSGSGSGTDFTLTISSLQPEDFATYYCQQYYDYPITFGQGTKVEIKR
For the molecule B7, the EC50 in test [1] was 2.17 nM; in test [4], 4.83 nM.

B8: NP19 (antibody, V domains shown)
VH: EVQLVESGGGLVQPGGSLRLSCAASGFTISSWGIHWVRQAPGKGLEWVAGIGPFWGYTSYADSVKGRFTISADTSKNTAYLQMNSLRAEDTAVYYCARFGVDNYGYMDYWGQGTLVTVSS
VL: DIQMTQSPSSLSASVGDRVTITCRASQDVSGWVAWYQQKPGKAPKLLISWSTGLYSGVPSRFSGSGSGTDFTLTISSLQPEDFATYYCQQYFNFPVTFGQGTKVEIKR
As to B8, the EC50 in test [2] was found to be 3.37 nM; in test [3] it was 0.812 nM; in test [4] it was 0.295 nM.

B9: NP5 (antibody, V domains shown)
VH: EVQLVESGGGLVQPGGSLRLSCAASGFTISNGSIHWVRQAPGKGLEWVAGIWPSGGSTSYADSVKGRFTISADTINNSAYLQMNSLRAEDTAVYYCARWNYWGQGTLVTVSS
VL: DIQMTQSPSSLSASVGDRVTITCRASQDVGWSVAWYQQKPGKAPKLLIYGSRWLYSGVPSRFSGSGSGTDFTLTISSLQPEDFATYYCQQGYNGPLTFGQGTKVEIKR
On to B9, for which the EC50 amounted to 4.02 nM in test [2] and 1.82 nM in test [3].

B10: NP21 (antibody, V domains shown)
VH: EVQLVESGGGLVQPGGSLRLSCAASGFTINGYGIHWVRQAPGKGLEWVAGIWPYGGSTFYADSVKGRFTISADTSKNTAYLQMNSLRAEDTAVYYCARFYNNHGGIMDYWGQGTLVTVSS
VL: DIQMTQSPSSLSASVGDRVTITCRASQDVYFYVAWYQQKPGKAPKLLIYGSRWLYSGVPSRFSGSGSGTDFTLTISSLQPEDFATYYCQQYSNFPVTFGQGTKVEIKR
As to B10, the values for the half-maximal effective concentration (EC50) in test [2], in test [3] and in test [4] were 2.71 nM, 0.81 nM and 4.6 nM, respectively.

B11: NP18 (antibody, V domains shown)
VH: EVQLVESGGGLVQPGGSLRLSCAASGFTISGGGIHWVRQAPGKGLEWVASIWPSWGSTSYADSVKGRFTISADTSKNTAYLQMNSLRAEDTAVYYCARFHNGGFLVMDYWGQGTLVTVSS
VL: DIQMTQSSSSLSASVGDRVTITCRASQDVGYYVAWYQQKPGKAPKLLIYGPRFLYSGVPSRFSGSGSGTDFTLTISSLQPEDFATYYCQQYSNWPITFGQGTKVEIKR
With B11, the EC50 in test [3] came to 66.4 nM; in test [4], 7 nM.

B12: NP15 (antibody, V domains shown)
VH: EVQLVESGGGLVQPGGSLRLSCAASGFTISNWYIHWVRQAPGKGLEWVAGIGPYGGSTYYADSVKGRFTISADTSKNTAYLQMNSLRAEDTAVYYCARFHWDHLHGMDYWGQGTLVTVSS
VL: DIQMTQSPSSLSASVGDRVTITCRASQDVDNNVAWYQQKPGKAPKLLISYSTGLYSGVPSRFSGSGSGTDFTLTISSLQPEDFATYYCQQYWNYPITFGQGTKVEIKR
As for B12, the EC50 in test [2] came out at 4.61 nM; in test [3], 0.926 nM; in test [4] it was 0.668 nM.

B13: NP6 (antibody, V domains shown)
VH: EVQLVESGGGLVQPGGSLRLSCAASGFTINDGSIHWVRQAPGKGLEWVAGIGPFGGFTYYADSVKGRFTISADTSKNTAYLQMNSLRAEDTAVYYCARSGYSGSFDYWGQGTLVTVSS
VL: DIQMTQSPSSLSASVGDRVTITCRASQDVYFGVAWYQQKPGKAPKLLIYGTSYLYSGVPSRFSGSGSGTDFTLTISSLQPEDFATYYCQQFSNWPITFGQGTKVEIKR
In the case of B13, in test [2], the EC50 worked out at 78.3 nM.

B14: NP2 (antibody, V domains shown)
VH: EVQLVESGGGLVQPGGSLRLSCAASGFTIGGGGIHWVRQAPGKGLEWVAGIWPYWGYTFYADSVKGRFTISADTSKNTAYLQMNSLRAEDTAVYYCARFWHGNLDVMDYWGQGTLVTVSS
VL: DIQMTQSPSSLSASVGDRVTITCRASQDVYGYVAWYQQKPGKAPKLLIYGAAGLYSGVPSRFSGSGSGTDFTLTISSLQPEDFATYYCQQYSNFPLTFGQGTKVEIKR
For B14, the EC50 in test [1] amounted to 4.89 nM.

B15: NP24 (antibody, V domains shown)
VH: EVQLVESGGGLVQPGGSLRLSCAASGFTIDDWYIHWVRQAPGKGLEWVAGIGPYGGFTYYADSVKGRFTISADTSKNTAYLQMNSLRAEDTAVYYCARGYYGSFDYWGQGTLVTVSS
VL: DIQMTQSPSSLSASVGDRVTITCRASQDVGSSVAWYQQKPGKAPKLLIFYTSSLYSGVPSRFSGSGSGTDFTLTISSLQPEDFATYYCQQGWDSPVTFGQGTKVEIKR
In the case of B15, in test [1], the EC50 turned out to be 3.17 nM.
